# Measured values from patent publication US20230365956A1.
# Key:
# [1] = target: SARS-CoV-2 RBD variant Lambda (L452Q, F490S) (Sino Biological) (SARS-CoV-2) (UniProt P0DTC2); assay: BLI, avidity format: biotinylated RBD on SA sensor, binder in solution
# [2] = target: SARS-CoV-2 RBD variant Kappa (L452R, E484Q) (Sino Biological) (SARS-CoV-2) (UniProt P0DTC2); assay: as above
# [3] = target: SARS-CoV-2 RBD variant Delta (L452R, T478K) (Sino Biological) (SARS-CoV-2) (UniProt P0DTC2); assay: as above
# [4] = target: SARS-CoV-2 RBD variant Gamma (K417T, E484K, N501Y) (Sino Biological) (SARS-CoV-2) (UniProt P0DTC2); assay: as above
# [5] = target: SARS-CoV-2 RBD variant Beta (K417N, E484K, N501Y) (Sino Biological) (SARS-CoV-2) (UniProt P0DTC2); assay: as above
# [6] = target: SARS-CoV-2 RBD variant Alpha (N501Y) (Sino Biological) (SARS-CoV-2) (UniProt P0DTC2); assay: as above
# [7] = target: SARS-CoV-2 RBD variant Lambda (L452Q, F490S) (Sino Biological) (SARS-CoV-2) (UniProt P0DTC2); assay: BLI, affinity format: binder on AHC sensor, RBD in solution
# [8] = target: SARS-CoV-2 RBD variant Kappa (L452R, E484Q) (Sino Biological) (SARS-CoV-2) (UniProt P0DTC2); assay: as above
# [9] = target: SARS-CoV-2 RBD variant Delta (L452R, T478K) (Sino Biological) (SARS-CoV-2) (UniProt P0DTC2); assay: as above
# [10] = target: SARS-CoV-2 RBD variant Gamma (K417T, E484K, N501Y) (Sino Biological) (SARS-CoV-2) (UniProt P0DTC2); assay: as above
# [11] = target: SARS-CoV-2 RBD variant Beta (K417N, E484K, N501Y) (Sino Biological) (SARS-CoV-2) (UniProt P0DTC2); assay: as above
# [12] = target: SARS-CoV-2 RBD variant Alpha (N501Y) (Sino Biological) (SARS-CoV-2) (UniProt P0DTC2); assay: as above
# [13] = target: SARS-CoV-2 RBD variant Lambda (L452Q, F490S) (Sino Biological) (SARS-CoV-2) (UniProt P0DTC2); assay: BLI, avidity format: response at highest analyte concentration
# [14] = target: SARS-CoV-2 RBD variant Kappa (L452R, E484Q) (Sino Biological) (SARS-CoV-2) (UniProt P0DTC2); assay: as above
# [15] = target: SARS-CoV-2 RBD variant Delta (L452R, T478K) (Sino Biological) (SARS-CoV-2) (UniProt P0DTC2); assay: as above
# [16] = target: SARS-CoV-2 RBD variant Gamma (K417T, E484K, N501Y) (Sino Biological) (SARS-CoV-2) (UniProt P0DTC2); assay: as above
# [17] = target: SARS-CoV-2 RBD variant Beta (K417N, E484K, N501Y) (Sino Biological) (SARS-CoV-2) (UniProt P0DTC2); assay: as above
# [18] = target: SARS-CoV-2 RBD variant Alpha (N501Y) (Sino Biological) (SARS-CoV-2) (UniProt P0DTC2); assay: as above
# [19] = target: SARS-CoV-2 RBD variant Lambda (L452Q, F490S) (Sino Biological) (SARS-CoV-2) (UniProt P0DTC2); assay: BLI, affinity format: response at highest analyte concentration
# [20] = target: SARS-CoV-2 RBD variant Kappa (L452R, E484Q) (Sino Biological) (SARS-CoV-2) (UniProt P0DTC2); assay: as above
# [21] = target: SARS-CoV-2 RBD variant Delta (L452R, T478K) (Sino Biological) (SARS-CoV-2) (UniProt P0DTC2); assay: as above
# [22] = target: SARS-CoV-2 RBD variant Gamma (K417T, E484K, N501Y) (Sino Biological) (SARS-CoV-2) (UniProt P0DTC2); assay: as above
# [23] = target: SARS-CoV-2 RBD variant Beta (K417N, E484K, N501Y) (Sino Biological) (SARS-CoV-2) (UniProt P0DTC2); assay: as above
# [24] = target: SARS-CoV-2 RBD variant Alpha (N501Y) (Sino Biological) (SARS-CoV-2) (UniProt P0DTC2); assay: as above
substance,measurement,setting,value
Cilgavimab (antibody),Kd,[1],0.0815 nM
same,koff,[1],2.37e-05 s⁻¹
same,kon,[1],291000 M⁻¹ s⁻¹
same,Kd,[2],0.204 nM
same,koff,[2],6.08e-05 s⁻¹
same,kon,[2],298000 M⁻¹ s⁻¹
same,Kd,[3],0.0481 nM
same,koff,[3],1.61e-05 s⁻¹
same,kon,[3],335000 M⁻¹ s⁻¹
same,Kd,[4],0.193 nM
same,koff,[4],7.42e-05 s⁻¹
same,kon,[4],385000 M⁻¹ s⁻¹
same,Kd,[5],0.273 nM
same,koff,[5],9.67e-05 s⁻¹
same,kon,[5],355000 M⁻¹ s⁻¹
same,Kd,[6],0.124 nM
same,koff,[6],4.26e-05 s⁻¹
same,kon,[6],344000 M⁻¹ s⁻¹
same,Kd,[7],9.81 nM
same,koff,[7],0.00348 s⁻¹
same,kon,[7],354000 M⁻¹ s⁻¹
same,Kd,[8],9.89 nM
same,koff,[8],0.00364 s⁻¹
same,kon,[8],368000 M⁻¹ s⁻¹
same,Kd,[9],7.34 nM
same,koff,[9],0.00321 s⁻¹
same,kon,[9],438000 M⁻¹ s⁻¹
same,Kd,[10],2.82 nM
same,koff,[10],0.0011 s⁻¹
same,kon,[10],392000 M⁻¹ s⁻¹
same,Kd,[11],1.43 nM
same,koff,[11],0.000631 s⁻¹
same,kon,[11],441000 M⁻¹ s⁻¹
same,Kd,[12],2.44 nM
same,koff,[12],0.000981 s⁻¹
same,kon,[12],401000 M⁻¹ s⁻¹
same,Response,[13],0.727 nm shift
same,Response,[14],0.628 nm shift
same,Response,[15],0.525 nm shift
same,Response,[16],0.657 nm shift
same,Response,[17],0.473 nm shift
same,Response,[18],0.697 nm shift
same,Response,[19],0.236 nm shift
same,Response,[20],0.322 nm shift
same,Response,[21],0.357 nm shift
same,Response,[22],0.428 nm shift
same,Response,[23],0.438 nm shift
same,Response,[24],0.452 nm shift
